Laboratory results taken from the supplement of paper PMC9112550, “Optimization of the antimicrobial peptide Bac7 by deep mutational scanning” (BMC Biology, 2022).

test system: Escherichia coli TOP10; experiment: shrunken log2 fold change of peptide-encoding DNA abundance (4.5 h post-induction vs induction); higher = less antimicrobial activity (less host growth inhibition); conditions: time post-induction: 4.5 h; library: site-saturation at positions 5, 18, 19, 20
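Also: peptides expressed intracellularly from a pBAD plasmid library in pooled LB shake-flask culture, induced with 0.3% L-arabinose, DNA abundance read by NGS, three biological replicates, DESeq2 with apeglm shrinkage.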

| Sequence | shrunken log2 fold change |
| --- | --- |
| RRIRHRPPRLPRPRPRPARKPRP | -0.164 |
| RRIRWRPPRLPRPRPRPGGVPRP | 0.427 |
| RRIRMRPPRLPRPRPRPIFWPRP | 0.337 |
| RRIRLRPPRLPRPRPRPGRRPRP | 0.363 |
| RRIRKRPPRLPRPRPRPTWTPRP | 0.0915 |
| RRIRWRPPRLPRPRPRPSSPPRP | -0.0889 |
| RRIRIRPPRLPRPRPRPCFWPRP | -0.22 |
| RRIRMRPPRLPRPRPRPVIMPRP | -0.101 |
| RRIRTRPPRLPRPRPRPHMGPRP | -0.00538 |
| RRIRSRPPRLPRPRPRPIPMPRP | -0.0186 |
| RRIRMRPPRLPRPRPRPPRHPRP | 0.955 |
| RRIRLRPPRLPRPRPRPRKVPRP | 0.0909 |
| RRIRKRPPRLPRPRPRPIHPPRP | 0.0728 |
| RRIRLRPPRLPRPRPRPRRYPRP | -0.00737 |
| RRIRQRPPRLPRPRPRPPTMPRP | 0.29 |
| RRIRIRPPRLPRPRPRPWKFPRP | -0.158 |
| RRIRQRPPRLPRPRPRPHSCPRP | -0.194 |
| RRIRFRPPRLPRPRPRPIWRPRP | 0.248 |
| RRIRPRPPRLPRPRPRPKTYPRP | -0.451 |
| RRIRERPPRLPRPRPRPKQMPRP | -0.19 |
| RRIRCRPPRLPRPRPRPHGMPRP | -0.114 |
| RRIRYRPPRLPRPRPRPVQDPRP | -0.00208 |
| RRIRGRPPRLPRPRPRPYLLPRP | -0.407 |
| RRIRRRPPRLPRPRPRPIAFPRP | -0.0124 |
| RRIRKRPPRLPRPRPRPFDPPRP | -0.145 |

| Sequence | shrunken log2 fold change |
| --- | --- |
| RRIRFRPPRLPRPRPRPLPQPRP | 1.15 |
| RRIRHRPPRLPRPRPRPMVNPRP | -0.469 |
| RRIRIRPPRLPRPRPRPMHEPRP | -0.0221 |
| RRIRSRPPRLPRPRPRPYHDPRP | -0.174 |
| RRIRSRPPRLPRPRPRPKNIPRP | -0.314 |
| RRIRNRPPRLPRPRPRPLFTPRP | -0.0916 |
| RRIRTRPPRLPRPRPRPLFGPRP | -0.186 |
| RRIRQRPPRLPRPRPRPTTVPRP | -0.114 |
| RRIRERPPRLPRPRPRPTSWPRP | 0.0831 |
| RRIRFRPPRLPRPRPRPMMVPRP | -0.112 |
| RRIRNRPPRLPRPRPRPYTCPRP | -0.0637 |
| RRIRGRPPRLPRPRPRPIQHPRP | -0.0341 |
| RRIRWRPPRLPRPRPRPPKNPRP | 0.757 |
| RRIRSRPPRLPRPRPRPVFYPRP | -0.266 |
| RRIRMRPPRLPRPRPRPMGSPRP | -0.0199 |
| RRIRTRPPRLPRPRPRPREIPRP | 0.00997 |
| RRIRQRPPRLPRPRPRPPRSPRP | 0.601 |
| RRIRTRPPRLPRPRPRPGYLPRP | 0.0359 |
| RRIRHRPPRLPRPRPRPSDLPRP | -0.441 |
| RRIRSRPPRLPRPRPRPKSLPRP | -0.0747 |
| RRIRARPPRLPRPRPRPPCSPRP | 0.752 |
| RRIRGRPPRLPRPRPRPIVFPRP | 0.194 |
| RRIRNRPPRLPRPRPRPQSHPRP | -0.68 |
| RRIRPRPPRLPRPRPRPDDYPRP | 0.0238 |
| RRIRLRPPRLPRPRPRPVSYPRP | -0.0976 |

| Sequence | shrunken log2 fold change |
| --- | --- |
| RRIRHRPPRLPRPRPRPRMQPRP | 0.183 |
| RRIRGRPPRLPRPRPRPSGAPRP | 0.688 |
| RRIRGRPPRLPRPRPRPKFFPRP | 0.36 |
| RRIRLRPPRLPRPRPRPQHWPRP | -0.044 |
| RRIRYRPPRLPRPRPRPGSRPRP | -0.3 |
| RRIRDRPPRLPRPRPRPCLEPRP | 0.103 |
| RRIRSRPPRLPRPRPRPDNKPRP | -0.256 |
| RRIRMRPPRLPRPRPRPHWGPRP | 0.12 |
| RRIRLRPPRLPRPRPRPDDIPRP | -0.0521 |
| RRIRARPPRLPRPRPRPGNQPRP | -0.0242 |
| RRIRQRPPRLPRPRPRPPFAPRP | 0.742 |
| RRIRQRPPRLPRPRPRPYLWPRP | -0.0736 |
| RRIRGRPPRLPRPRPRPILYPRP | 0.0934 |
| RRIRHRPPRLPRPRPRPAGAPRP | 0.199 |
| RRIRHRPPRLPRPRPRPNTQPRP | -0.248 |
| RRIRIRPPRLPRPRPRPEEEPRP | -0.031 |
| RRIRCRPPRLPRPRPRPDTTPRP | 0.00602 |
| RRIRNRPPRLPRPRPRPNCDPRP | -0.237 |
| RRIRHRPPRLPRPRPRPRHRPRP | -0.029 |
| RRIRERPPRLPRPRPRPTGFPRP | -0.00436 |
| RRIRQRPPRLPRPRPRPDDEPRP | -0.0396 |
| RRIRGRPPRLPRPRPRPEPLPRP | 0.341 |
| RRIRSRPPRLPRPRPRPEPWPRP | 0.548 |
| RRIRARPPRLPRPRPRPEVTPRP | 1.28 |
| RRIRERPPRLPRPRPRPIVSPRP | 0.0707 |
